According to the nanobody polyreactivity screen of Harvey et al. (2022):

assay: yeast display, Sf9 membrane polyspecificity reagent, FACS + sequencing; frameworks hold sequencing errors
How it was run: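 Genes from sorted yeast were amplified by colony PCR, read by MiSeq 2 × 250 sequencing and filtered on CDR length. These cells carried a synthetic nanobody library in Saccharomyces cerevisiae BJ5465 and were sorted by FACS into low and high (top ~1%) gates on anti-HA and streptavidin fluorescence. Polyreactivity is labelled according to the gate of origin.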

Sequence	polyreactivity (PSR sort gate)
QVQLVESGGGLVQAGGSLRLSCAASGFTFVAYAMGWYRPAPGKERELVAAIRRTDTSTYYADSVKGRFTISRDNAKNTVYLQMNSLKPEDTAVYYCAADYWRRTYLGFDYWGQGTQVTVSS	low polyreactivity
QVQLVESGGGLVQAGGSLRLSCAASGFTFVGYAIGWYRQAPGKERDMVAAITRRGGSTYYADSVKGRFTISRDNAKNTVYLQMNSLKPEDTAVYYCNKSSYRISVPRYDYWGQGTQVTVSS	high polyreactivity
QVQLVESGGGLVQAGGSLRLSCAASGFTFVINDMGWYRQAPGKERELVADITSGGDTYYADSVKGRFTISRDNAKNTVYLQMNSLKAEDTAVYYCAADIYPDWIYLLYGYWGQGTQVTVSS	low polyreactivity
QVQLVESGGGLVQAGGSLRLSCAASGFTFVKNAMGWYRQAPGNERELVAAISQSGGSTYYADSVKGRFTISRDNAKNTVYLQMNSLKPEDTAVYYCAATYYTYWGYRDYYWGQGTQVTVSS	high polyreactivity
QVQLVESGGGLVQAGGSLRLSCAASGFTFVLYAMGWYRQAPGKERELVADITEGGDNTYYADSVKGRFTISRDNAKNTVYLQMNSLKPEDTAVYYCNARASRLYPPYDYWGQGTQVTVSS	high polyreactivity
QVQLVESGGGLVQAGGSLRLSCAASGFTFVNNAMGWYRQAPGKERELVAAISGGGTTNYADSVKGRFTISRDNAKNTVYLQMNSLKPEDTAVYYCAARRYFGLWYFWYDYWGQGTQVTVSS	high polyreactivity
QVQLVESGGGLVQAGGSLRLSCAASGFTFVNYAMGWYRQAPGKERELVAAISFRSARTYYADSVKGRFTISRDNAKNNVYLQMNSLKPEDTAVYYCAARVSRRFDYWGQGTQVTVSS	high polyreactivity
QVQLVESGGGLVQAGGSLRLSCAASGFTFVPYAMGWYRQAPGKEREFVATISWSAGRTYYADSVKGRFTISRDNAKNTVYLQMNSLKPEDTAVYYCNARQWCQRYSKVRYDFWGQGTQVTVSS	high polyreactivity
QVQLVESGGGLVQAGGSLRLSCAASGFTFVQYAMGWYRQAPGKERELVATISKSGGITYYADSVKGRFTISRDNAKNTVFLQMNSLKPEVTAVYYCAAAWYYSSRGFHATWGHDYWGQGTQVTVSS	low polyreactivity
QVQLVESGGGLVQAGGSLRLSCAASGFTFVRNALGWYRPAPGKERELVAAITDAGRTTYADSVKGRFTISRDNAKNTVYLQMNSLKPEDTAVYYCAKGKWWGWPWYSMDYWGQGTQVTVSS	low polyreactivity
QVQLVESGGGLVQAGGSLRLSCAASGFTFVRYAMGWYRQAPGKDRELVAAISKSGGRTYYTDSVKGRFTISRDNAKTTVYLQMNSLKPEDTAVYYCAADPVSDYYGYGYWGQGTQVTVSS	high polyreactivity
QVQLVESGGGLVQAGGSLRLSCAASGFTFVSNAMGWYRQAPGKERELVAAITYSGTRTYYADSVKGRFTISRDNAKNTVYLQMNSLKPEDTAVYYCAARRGYASAYYYWGQGTQVTVSS	high polyreactivity
QVQLVESGGGLVQAGGSLRLSCAASGFTFVSNAMVWSRQAPGKERELVADITSDGSTNYADSVKGRFTISRDNAKNTVYLQMNSLKPEDTAVYHCATDQRSNTWVNQFDYWGQGTQVTVSS	low polyreactivity
QVQLVESGGGLVQAGGSLRLSCAASGFTFVSYAMGWYRQAPGKERELVAAISSRVVSTYYADSVKGRFTISRDNAKNTVYLQMNSLKPEDTAVYYCATDRYAYKLYDYWGQGTQVTVSS	low polyreactivity
QVQLVESGGGLVQAGGSLRLSCAASGFTFVSYAMGWYRQAPGKERELVAVIDNSDGDTYYADSVKGRFTISRDNAKNTVYLQMNSLKPEDTAVYYCAADAVIEWTDWYSAWWYYYWGQGTQVTVSS	low polyreactivity
QVQLVESGGGLVQAGGSLRLSCAASGFTFVVNAMAWYRQAPGKEREFVAAIRQSGGSTYYADSVKGRFTISRDNAKNTVYLQMNSLKPEDTAVYYCNAEDWGYGYDYWGQGTQVTVSS	low polyreactivity
QVQLVESGGGLVQAGGSLRLSCAASGFTFVVYAMGWYRQAPGKERELVAAIRRTGGSTYYADSVKGRFTISRDNAKNTVYLQMNSLKPEDTAVYYCAAHAISYQSRYRYRYGSVDYWGQGTQVTVSS	high polyreactivity
QVQLVESGGGLVQAGGSLRLSCAASGFTFVYYAMGWYRQAPGKEREFAYYADSVKGRFTISRDNAKNTVYLQMNSLKPEDTAVYYCNAAEDEGDRPITQVGYDYWGQGTQVTVSS	low polyreactivity
QVQLVESGGGLVQAGGSLRLSCAASGFTFVYYAMGWYRQAPGKERELVAAISRGGSTYYADSVKGRFTISRDNAKNTVYLQMNSLKPEDTAVYYCNAKKSGHYVSYPAYDYWGQGTQVTVSS	low polyreactivity
QVQLVESGGGLVQAGGSLRLSCAASGFTFVYYTMGWYRQAPGKERELVAAITSGGRTYYADSVKGRFTISRDNAKNTVYLQMNSLKPEDTAVYYCAAPDRYRGYIGYGYWGQGTQVTVSS	high polyreactivity
QVQLVESGGGLVQAGGSLRLSCAASGFTFWAYAMGWYRQAPGKERELVAAISGSGGNTYYADSVKGRFTISRDNAKNTVYLQMNSLKPEDTAVYYCAVEDAGQGGDYWGQGTQVTVSS	low polyreactivity
QVQLVESGGGLVQAGGSLRLSCAASGFTFWAYAMGWYRQAPGKERELVAVISGSGGRTYYADSVKGRFTISRDNAKNTVYLQMNSLKPEDTAVYYCNARYPRLHRTYNYWGQGTLVTVSS	high polyreactivity

Sequence	polyreactivity (PSR sort gate)
QVQLVESGGGLVQAGGSLRLSCAASGFTFWDNAMGWYRQAPGKERELVAAISRRGGTTYYADSVKVRFTISRDNAKNTVYLQMNSLKPEDTAVYYCNKAFSLQIYATGMGYWGQGTQVTVSS	high polyreactivity
QVQLVESGGGLVQAGGSLRLSCAASGFTFWDYDLGWSRQATGKERELVAAISDNDGSTDYADSVKGRITISRDNVKNTVFLQMNRLKPEESAVYYCNAEIEMPSKEGDYWGLGTQVTVSS	low polyreactivity
QVQLVESGGGLVQAGGSLRLSCAASGFTFWDYTMGWYRQAPAKERELVAAINRGGNTYYADSVKGRFTISRDNAKNTVYLQMNSLKPEDSADYYCAARRRSRQYRYDYWGQGTQVTVSS	high polyreactivity
QVQLVESGGGLVQAGGSLRLSCAASGFTFWGNAMGWYRQAPGKERELVAAISRSGGRTYYADSVKGRFTISRDNAKNTVYLQMNSLKPEDTAVYYCAAGSSHHFDYEGGYWGQGTQVTVSS	low polyreactivity
QVQLVESGGGLVQAGGSLRLSCAASGFTFWKYAMGWYRQAPGKEREFVPAISWSGGNTYYADSVKGRFTISRDNAKNTVYLQMNSLKPEDTADYYCARRGRYYLYTDDYDYWGQGTQVTVSS	high polyreactivity
QVQLVESGGGLVQAGGSLRLSCAASGFTFWKYSMGWYRQAPGKERELVATITSSGDNTYYADSVKGRFTISRDNAKNTVYLQMNSLKPEDTAVYYCAADNGYHYNFDYWGQGTQVTVSS	low polyreactivity
QVQLVESGGGLVQAGGSLRLSCAASGFTFWLYAMGWYRQAPGKERELVAAIDWDGGTYYADSVKGRFTISRDNAKNTVYLQMNSLKPEDTAVYYCAARYRYYYTRYDYWGQGTQVTVSS	high polyreactivity
QVQLVESGGGLVQAGGSLRLSCAASGFTFWLYSMGWDRQAPGKEREFVAAISTSGGSTYADSVKGRFTISRDNAKNTVYLLMNSLKPEDTAVYYCAGVYTYPLGYYHYTYDYWGQGTQVTVSS	low polyreactivity
QVQLVESGGGLVQAGGSLRLSCAASGFTFWLYSMGWYRQAPGKERELVAAISWSGGSTYYADSVKGRFTISRDNAKNTVYFQMNSMKPEDPAVYYCAAVKYVRCAEFYYWGQGTQVTVSS	high polyreactivity
QVQLVESGGGLVQAGGSLRLSCAASGFTFWLYTMGWYRQAPGKERELVAAISWSGGSTYYADSVKGRFTISRDTAKNTVYLQMNSLKPEDTAVYYCNALYVGYYDSMGYWGQGTQVTVSS	high polyreactivity
QVQLVESGGGLVQAGGSLRLSCAASGFTFWQYAMGWNRQAPGKERELVAAITWDVGSTYYSDSVKGRFTISRDNAKNTVYLQLNSLKPEDTAVYYCAKLIGGTYYEDDYWGQGSQVTVSS	low polyreactivity
QVQLVESGGGLVQAGGSLRLSCAASGFTFWQYAMGWYRQAPGKERELGAAITWDGGSTYYADSVKGRFTISRDTAKNTVYLQMNSLKPEDTAVYYRAKLFGGTYYEYDYWGQGTQVTVSS	low polyreactivity
QVQLVESGGGLVQAGGSLRLSCAASGFTFWRNTMGWYRQAPGKERELVAGISGSGGSTYYADSVKGRFTISRDNAKNTVYLQMNSLKPEDTAVYYCAVRGGYTWPTYNYWGQGTQVTVSS	high polyreactivity
QVQLVESGGGLVQAGGSLRLSCAASGFTFWRNVMGWYRQAPGKERELVAVISRGGSTNYADSVKGRFTISRDNAKNTVYLKMNSLIPEDTAVYYFAKYARGPSKVDYWGQGTQVTVSS	high polyreactivity
QVQLVESGGGLVQAGGSLRLSCAASGFTFWSYAMGWYRQAPGKERELVAAISSSGDSTYYADSVKGRFTISRDNAKNTVYLQMNSLKPEDTAVYYCAAEYQYLSVEVTDIWYLTKYDYWGQGTQVTVSS	low polyreactivity
QVQLVESGGGLVQAGGSLRLSCAASGFTFWVYAMGWYRQAPGKEREFVASISWTGDTTYYADSVKGRFTISRDNAKNTVYLQMNSLKPEDTAVYYCAGDTILGYDYWGQGTQVTVSS	low polyreactivity
QVQLVESGGGLVQAGGSLRLSCAASGFTFWVYAMGWYRQAPGKERELVAAISARGGSTYYADSVKVRFTISRDNAKNTVYLQMNRLKPEDTAVYYCAAEPSGKRSKFYYWGQGTQVTVSS	high polyreactivity
QVQLVESGGGLVQAGGSLRLSCAASGFTFWYYAMGWYRQAPGKERELVAAITYTGDRTYYADSVKGRFTISRDNAKNTVYLQMNSLKREDTAVYYCDVYLGIRSGTANDYWGQGTQVTVSS	high polyreactivity
QVQLVESGGGLVQAGGSLRLSCAASGFTFYANAMGWYRQAPGKERELVAAITQGGDSTYFADSVKGRFTISRDNAKKSVYLQLNSLKREDTAVYYCNTDLLCEYDYWGQGTQVTVSS	low polyreactivity
QVQLVESGGGLVQAGGSLRLSCAASGFTFYAYAMGWYRQAPGKERELVAAISSRGGRTYYADSVKGRFTISRDNAKNTVYLQMNSLKPEDTAVYYCIVPYYSFRELSSYYWGQGTQVTVSS	high polyreactivity
QVQLVESGGGLVQAGGSLRLSCAASGFTFYDNAMGWYRQAPGKERELVAAISWSGGSTYADSVKGRFTISRDNAKNTVYVQMNSLKPEDTAVYYCNADAWLASGYRYDYWGQGTQVTVSS	low polyreactivity
